No end group written: not given here.
Target: HIV-1 IIIB transmembrane glycoprotein gp41 (HIV-1 IIIB)
Assay: cell-based or functional assay

B1: T-1249 peptide (peptide)
peptide: WQEWEQKITALLEQAQIQQEKNEYELQKLDKWASLWEWF
modifications: not fully specified
- IC50, inhibition of HIV-1 IIIB infection of MT4-Luc cells (HIV LTR-luciferase reporter assay): ~3.3 nM

Source: patent US20050136061A1 (published 2005)
